In IntAct's records for PubMed 20594350:

B1: Cell division cycle and apoptosis regulator protein 1 (Homo sapiens), Q8IX12 (parent)
chain: MAQFGGQKNPPWATQFTATAVSQPAALGVQQPSLLGASPTIYTQQTALAAAGLTTQTPANYQLTQTAALQQQAAAAAAALQQQYSQPQQALYSVQQQLQQPQQTLLTQPAVALPTSLSLSTPQPTAQITVSYPTPRSSQQQTQPQKQRVFTGVVTKLHDTFGFVDEDVFFQLSAVKGKTPQVGDRVLVEATYNPNMPFKWNAQRIQTLPNQNQSQTQPLLKTPPAVLQPIAPQTTFGVQTQPQPQSLLQAQISAASITPLLQTQPQPLLQQPQQKAGLLQPPVRIVSQPQPARRLDPPSRFSGRNDRGDQVPNRKDDRSRERERERRRSRERSPQRKRSRERSPRRERERSPRRVRRVVPRYTVQFSKFSLDCPSCDMMELRRRYQNLYIPSDFFDAQFTWVDAFPLSRPFQLGNYCNFYVMHREVESLEKNMAILDPPDADHLYSAKVMLMASPSMEDLYHKSCALAEDPQELRDGFQHPARLVKFLVGMKGKDEAMAIGGHWSPSLDGPDPEKDPSVLIKTAIRCCKALTGIDLSVCTQWYRFAEIRYHRPEETHKGRTVPAHVETVVLFFPDVWHCLPTRSEWETLSRGYKQQLVEKLQGERKEADGEQDEEEKDDGEAKEISTPTHWSKLDPKTMKVNDLRKELESRALSSKGLKSQLIARLTKQLKVEEQKEEQKELEKSEKEEDEDDDRKSEDDKEEEERKRQEEIERQRRERRYILPDEPAIIVHPNWAAKSGKFDCSIMSLSVLLDYRLEDNKEHSFEVSLFAELFNEMLQRDFGVRIYKSLLSLPEKEDKKEKDKKSKKDERKDKKEERDDETDEPKPKRRKSGDDKDKKEDRDERKKEDKRKDDSKDDDETEEDNNQDEYDPMEAEEAEDEEDDRDEEEMTKRDDKRDINRYCKERPSKDKEKEKTQMITINRDLLMAFVYFDQSHCGYLLEKDLEEILYTLGLHLSRAQVKKLLNKVVLRESCFYRKLTDTSKDEENHEESESLQEDMLGNRLLLPTPTVKQESKDVEENVGLIVYNGAMVDVGSLLQKLEKSEKVRAEVEQKLQLLEEKTDEDEKTILNLENSNKSLSGELREVKKDLSQLQENLKISENMNLQFENQMNKTIRNLSTVMDEIHTVLKKDNVKNEDKDQKSKENGASV

Variants of: B1
Conditions: with wwtr1_mouse Wwtr1, Q9EPK5
wwtr1_mouse Wwtr1, Q9EPK5, sequence (Q9EPK5 whole entry): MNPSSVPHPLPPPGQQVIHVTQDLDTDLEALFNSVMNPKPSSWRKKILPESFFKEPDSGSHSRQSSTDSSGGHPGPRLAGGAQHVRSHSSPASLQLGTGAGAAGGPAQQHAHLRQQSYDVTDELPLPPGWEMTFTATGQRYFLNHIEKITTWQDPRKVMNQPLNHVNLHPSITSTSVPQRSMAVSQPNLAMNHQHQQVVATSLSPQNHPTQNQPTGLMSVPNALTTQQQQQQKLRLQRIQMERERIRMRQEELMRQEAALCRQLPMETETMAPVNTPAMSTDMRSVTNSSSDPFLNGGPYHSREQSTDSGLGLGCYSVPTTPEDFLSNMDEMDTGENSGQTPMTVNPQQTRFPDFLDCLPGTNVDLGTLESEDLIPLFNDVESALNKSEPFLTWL

Row | effect of a mutation on the interaction | Variant
1 | decreasing interaction | T667A
2 | increasing interaction | T667D
